From publication PMC4748810, “Structural basis for the endoribonuclease activity of the type III-A CRISPR-associated protein Csm6” (RNA, 2016)
Changes are numbered by the printed parent chain. Names may count otherwise.

B1: Thermus thermophilus Csm6 (enzyme, UniProt Q53W17 1-464, looked up)
chain: MEDLDALWERYREAVRAGGNPQALYQEMVWPALLALWREKPRVYPFPQAFAVSVHTLGTSPEATALAILGAGAERVYVLHTPESARFLPRLRQDTGKDLYPVEIGKSDVEAIYREVKRLLEKHPEVPVALDLTSGTKAMSAGLAAAGFFFQRFYPKVRVVYVDNEDYDPELRRPRAGTEKLRILPNPHEALAEVDALFAKELYGKGEFGQAAAYFRGMVGRTGNQAYALYALLAEMYRAWRALDFGEALKAGRKLLGQLSQNVWLNHPLNARREALEAQVALLEAVDRFLKARDFALKEGVYGLARTLLHLAQEAKEEAAVLAALYAYRALELLLQERLALLGRRAEAPGLSPEEAEALRKALAELLGVLPEEVRLPAKLGLLDLLAFLRLKGDEALGRLSLAELRGLAGALKGRNSALLVHGFDVPSPKAVEGIARLAQGLLQDLEARTALGPLSPEPVPLGF
notes: amplified from genomic DNA; Homodimer in the crystal and in solution; also called TtCsm6; TTHB152; not shown: His6, N-terminal, cleaved
B2: TtCsm6 with His422 substituted by alanine (enzyme, Thermus thermophilus, UniProt Q53W17 1-464, looked up)
chain: B1 chain with H422A
notes: also called H422A; not shown: His6, N-terminal, cleaved
B3: TtCsm6 with Glu332 substituted by alanine (enzyme, Thermus thermophilus, UniProt Q53W17 1-464, looked up)
chain: B1 chain with E332A
notes: also called E332A; not shown: His6, N-terminal, cleaved
B4: TtCsm6 with Arg415 substituted by alanine (enzyme, Thermus thermophilus, UniProt Q53W17 1-464, looked up)
chain: B1 chain with R415A
notes: also called R415A; not shown: His6, N-terminal, cleaved
B5: TtCsm6 with Asn416 substituted by alanine (enzyme, Thermus thermophilus, UniProt Q53W17 1-464, looked up)
chain: B1 chain with N416A
notes: also called N416A; not shown: His6, N-terminal, cleaved

Molecular target: the molecule itself
Assay: SEC; size-exclusion chromatography of purified proteins (Supplemental Fig. 3); the purification used Superdex 200 (26/600) in 20 mM HEPES 7.5, 500 mM KCl

Stoichiometry N, 2:
B1, B2, B3, B4, B5
